Experimental data as given in article PMC5452035, “Structural insight into recognition of phosphorylated threonine‐4 of RNA polymerase II C‐terminal domain by Rtt103p” (EMBO Reports, 2017).
Non-standard residues stand in square brackets, D forms with d. No end group written: not given here. pT = C[C@@H](OP(=O)(O)O)[C@H](N)C(=O)O; pS = N[C@@H](COP(=O)(O)O)C(=O)O; FAM = 5,6-carboxyfluorescein

Tests used:
Experiment in all cases: fluorescence polarisation; fluorescence anisotropy; Rtt103p CID titrated into 10 nM N-terminally FAM-labelled CTD peptide; 10°C; 35 mM KH2PO4, 100 mM KCl, pH 6.8; 1:1 model with non-specific binding (DynaFit)
Details in all cases: both partners purified
[1] = target: T1, Rtt103p CID Arg108Asn mutant (yeast, UniProt Q05543 3-131, Arg108Asn)
T1 sequence (looked up): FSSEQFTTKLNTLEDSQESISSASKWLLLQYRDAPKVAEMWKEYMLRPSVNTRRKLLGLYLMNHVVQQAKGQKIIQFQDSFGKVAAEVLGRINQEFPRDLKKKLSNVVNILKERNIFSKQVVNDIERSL

[2] = target: T2, Rtt103p CID Arg116Glu mutant (yeast, UniProt Q05543 3-131, Arg116Glu)
T2 sequence (looked up): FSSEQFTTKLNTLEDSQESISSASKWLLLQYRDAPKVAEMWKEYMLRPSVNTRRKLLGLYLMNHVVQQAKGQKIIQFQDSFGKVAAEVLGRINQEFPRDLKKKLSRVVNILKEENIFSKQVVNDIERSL

[3] = target: T3, Rtt103p CID Lys72Glu mutant (yeast, UniProt Q05543 3-131, Lys72Glu)
T3 sequence (looked up): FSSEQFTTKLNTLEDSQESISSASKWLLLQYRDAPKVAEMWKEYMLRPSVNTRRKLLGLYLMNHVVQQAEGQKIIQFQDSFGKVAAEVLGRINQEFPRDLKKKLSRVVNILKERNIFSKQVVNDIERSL

[4] = target: T4, Rtt103p CTD-interacting domain (CID) (3-131-6xHIS) (yeast, UniProt Q05543 3-131)
T4 construct: Used unlabelled for fluorescence anisotropy and the 13C-HSQC titration, 15N-labelled for the TROSY titration and 15N,13C-labelled for the structure; also called Rtt103p CID; Rtt103 CID
T4 sequence (looked up): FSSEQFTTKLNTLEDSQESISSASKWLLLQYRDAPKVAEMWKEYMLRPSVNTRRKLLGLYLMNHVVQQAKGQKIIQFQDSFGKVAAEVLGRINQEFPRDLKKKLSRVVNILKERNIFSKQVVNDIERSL

Binder	Kd [1] [µM]	Kd [2] [µM]	Kd [3] [µM]	Kd [4] [µM]
{FAM}-PSY[pS]PTSPSYSPTSPS (consensus heptad repeats (Tyr1-Ser2-Pro3-Thr4-Ser5-Pro6-Ser7) of the C-terminal domain of the largest subunit of RNA polymerase II (Rpb1); residues named by heptad position and repeat letter (P6a ... S7c); also called pSer2-CTD; FAM-pSer2 CTD; source: synthetic peptide (JPT, Berlin, or Clonestar, Brno)) [FAM-PSY(pS)PTSPSYSPTSPS]	44			
{FAM}-PSYSP[pT]SPSYSPTSPS (consensus heptad repeats of the C-terminal domain of the largest subunit of RNA polymerase II (Rpb1); residues named by heptad position and repeat letter (P6a ... S7c); also called pThr4-CTD; FAM-pThr4 CTD; source: synthetic peptide (JPT, Berlin, or Clonestar, Brno)) [FAM-PSYSP(pT)SPSYSPTSPS]	38	107	54	
{FAM}-PSYSP[pT]SPSYS (consensus heptad repeats of the C-terminal domain of the largest subunit of RNA polymerase II (Rpb1); residues named by heptad position and repeat letter (P6a ... S2c); source: synthetic peptide (JPT, Berlin, or Clonestar, Brno)) [FAM-PSYSP(pT)SPSYS]				18
